Measured values reported in patent US20200270586A1.
Where two headings read alike, the source gives them in different places.

How the values were obtained:
Details in all cases: modification not given
[1] = target: LgTrip 3546 (with His tag; SEQ ID NO: 51); experiment: luminescence complementation; SmTrip9 Kd
[2] = target: LgTrip 3546 (with His tag; SEQ ID NO: 51); experiment: luminescence complementation
[3] = target: LgTrip 3546 (with His tag; SEQ ID NO: 51)

LgTrip 3546 (with His tag; SEQ ID NO: 51), sequence (chain, as listed by the source): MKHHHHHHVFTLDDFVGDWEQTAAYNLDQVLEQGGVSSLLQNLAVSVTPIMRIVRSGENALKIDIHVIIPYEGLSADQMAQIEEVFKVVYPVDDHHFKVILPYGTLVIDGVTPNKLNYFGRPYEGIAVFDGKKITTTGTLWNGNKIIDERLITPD

Binder	Kd [1]	Kd [2]	Kd [3]
DKMLFTVTINKWK [786]	500 nM	–	–
KKMLFRVTIQKWK [760]	20 nM	–	–
DLMLFRVTINSWK [657]	–	70 nM	–
EKMLFTVTIGRWK [712]	–	370 nM	–
DKMLFTVTIEKWK [753]	150 nM	120 nM	–
EKMLFTVTIGKWK [710]	–	1290 nM	–
DKMLFKVTIQKWK [744]	–	1130 nM	–
DKMLFRVTIESWK [722]	–	17800 nM	–
ELMLFRVTINSWK [655]	–	15900 nM	–
GKMLFRVSINSWK [614]	–	2580 nM	–
GKMKFRVTIQSWK [716]	–	290 nM	–
SSWKRGSMLFRVWINS [427]	–	–	230 nM
DKLLFKVTIGKYK [751]	–	610 nM	–
DKLLFKVTIEKYK [755]	–	1450 nM	–
DKLLFKVTIQKYK [747]	–	100 nM	–
KQMLFRVTINSWK [654]	–	60 nM	–
DKMLFKVTIEKWK [752]	–	320 nM	–
GKMKFRVTIESWK [717]	–	1140 nM	–
GKMLFRVTIKSWK [621]	–	40 nM	–
DKLLFTVTINKYK [800]	9750 nM	–	–
DRMLFRVTIQRWR [762]	120 nM	–	–
GKMLFKVTINKWK [781]	380 nM	–	–
DKLLFTVTIGKWK [793]	540 nM	–	–
GKMLFTVTINKWK [782]	360 nM	–	–

Binder	Kd [1]	Kd [2]	Kd [3]
GKMKFRVTIKSWK [718]	–	380 nM	–
KLMLFRVTINSWK [653]	–	160 nM	–
DKMLFRVTIGKWK [739]	–	200 nM	–
GKMLFRVTINRWK [701]	–	120 nM	–
DKMLFRVTIGNWK [740]	–	3650 nM	–
GKMLFRVTIEKWK [703]	–	110 nM	–
DKMLFRVTINKWK [784]	410 nM	–	–
GKMSFRVTINSWK [616]	–	1230 nM	–
GKMLFRVTISKWK [670]	–	30 nM	–
DKMLFKVTIEKYK [785]	380 nM	–	–
DKLLFKVTIGKWK [750]	–	350 nM	–
KKLLFRVTIQKWK [761]	20 nM	–	–
GRMLFRVTINRWR [768]	100 nM	–	–
GSMLFRVTINSYK [619]	–	1510 nM	–
DKMLFKVTIQKYK [783]	240 nM	–	–
EKMLFKVTIQKWK [714]	–	220 nM	–
EKMLFRVTIGRWK [709]	–	180 nM	–
GKMNFRVTINSWK [618]	–	2690 nM	–
EKMLFTVTIEKWK [720]	–	360 nM	–
DKLLFKVTIEKWK [754]	–	750 nM	–
ERMLFRVTIGRWR [766]	70 nM	–	–
DKMLFKVTINKWK [787]	730 nM	–	–
DKLLFTVTINKWK [799]	210 nM	–	–
DKMLFKVTIGKWK [748]	–	440 nM	–

Second part, the binder after the results:

Kd [1]	Kd [2]	Kd [3]	Binder
350 nM	–	–	DRMLFRVTIERWR [770]
–	1100 nM	–	DKLLFKVTIQKWK [746]
–	5250 nM	–	GKMLFRVNINSWK [613]
1060 nM	1700 nM	–	DKMLFTVTIGKWK [749]
–	280 nM	–	EKMLFRVTIGKWK [708]
–	350 nM	–	GKMLFRVWINSWK [615]
–	12600 nM	–	DKMLFRVTIQNWK [741]
230 nM	–	–	DKLLFTVTIGKYK [794]
–	4380 nM	–	DQMLFRVTINSWK [658]
–	20 nM	–	RLMLFRVTIGKWK [676]
110 nM	230 nM	–	DKMLFRVTIQKWK [738]
1000 nM	750 nM	–	DKMLFRVTIEKWK [742]
–	40 nM	–	RLMLFRVTINSWK [651]
–	380 nM	–	GKMLFRVTIGNWK [669]
–	320 nM	–	GKMWFRVTINSWK [617]
–	1120 nM	–	EKMLFRVTIEKWK [707]
–	6260 nM	–	EQMLFRVTINSWK [656]
–	40 nM	–	GKMLFRVTIKKWK [673]
–	10 nM	–	GKMLFRVTITKWK [672]
–	370 nM	–	GKMKFRVTIRSWK [719]
–	500 nM	–	EKLLFTVTIGKWK [711]
–	30 nM	–	RQMLFRVTINSWK [652]
–	640 nM	–	EKLLFRVTIGKYK [726]
